Assay results from paper PMC6130949, “The rational design of affinity-attenuated OmCI for the purification of complement C5” (The Journal of Biological Chemistry, 2018).
Values joined by “and” are separate entries in the source; they are usually repeats but may differ in a detail not shown here. Equal entries are not always repeated.

Experiments:
[1] = molecular target: Complement component C5 from human serum (human (endogenous in human serum))
[2] = molecular target: Wildtype OmCI (Ornithodoros moubata) (UniProt Q5YD59); experiment: SPR; multicycle kinetics, Biacore 8K; OmCI biotinylated on the N-terminal AVI tag and captured on an SA streptavidin chip (20-100 RU); C5 as analyte, 7-point 3-fold titration from 250 nM in HBS-EP, 30 ul/min, contact 240 s, dissociation 3600 s; regeneration with 0.1 M citric acid pH 2.0; single-site binding model
[3] = molecular target: Wildtype OmCI (Ornithodoros moubata) (UniProt Q5YD59); experiment: differential scanning calorimetry; C5 (CompTech) and OmCI mixed in 1:1.25 molar ratio, at least 6 h at 4 °C, PBS; heated 10-100 °C at 1 °C/min; n = 1
[4] = molecular target: OmCI D167A (Ornithodoros moubata) (UniProt Q5YD59); experiment: SPR; single-cycle kinetics, Biacore 8K; OmCI amine coupled to a CM5 chip (~50 RU); C5 (CompTech) as analyte, 9-point 3-fold titration from 500 nM in HBS-EP, 40 ul/min, contact 230 s, dissociation 900 s; single-site binding model
[5] = molecular target: OmCI E141A (Ornithodoros moubata) (UniProt Q5YD59); experiment: as above
[6] = molecular target: OmCI E141A/H164A (Ornithodoros moubata) (UniProt Q5YD59); experiment: as above
[7] = molecular target: OmCI E141A/L140G (Ornithodoros moubata) (UniProt Q5YD59); experiment: as above
[8] = molecular target: OmCI E141A/R47A (Ornithodoros moubata) (UniProt Q5YD59); experiment: as above
[9] = molecular target: OmCI E141A/R47A/H164A/L140G (Ornithodoros moubata) (UniProt Q5YD59); experiment: as above
[10] = molecular target: OmCI E141A/R47A/L140G (Ornithodoros moubata) (UniProt Q5YD59); experiment: as above
[11] = molecular target: OmCI F36W (Ornithodoros moubata) (UniProt Q5YD59); experiment: as above
[12] = molecular target: OmCI H117A (Ornithodoros moubata) (UniProt Q5YD59); experiment: as above
[13] = molecular target: OmCI H164A (Ornithodoros moubata) (UniProt Q5YD59); experiment: as above
[14] = molecular target: OmCI L140G (Ornithodoros moubata) (UniProt Q5YD59); experiment: as above
[15] = molecular target: OmCI M134G (Ornithodoros moubata) (UniProt Q5YD59); experiment: as above
[16] = molecular target: OmCI R47A (Ornithodoros moubata) (UniProt Q5YD59); experiment: as above
[17] = molecular target: OmCI E141A (Ornithodoros moubata) (UniProt Q5YD59); experiment: SPR; multicycle kinetics, Biacore 8K; OmCI biotinylated on the N-terminal AVI tag and captured on an SA streptavidin chip (20-100 RU); C5 as analyte, 7-point 3-fold titration from 250 nM in HBS-EP, 30 ul/min, contact 240 s, dissociation 3600 s; regeneration with 0.1 M citric acid pH 2.0; single-site binding model
[18] = molecular target: OmCI E141A/H164A (Ornithodoros moubata) (UniProt Q5YD59); experiment: as above
[19] = molecular target: OmCI E141A/R47A (Ornithodoros moubata) (UniProt Q5YD59); experiment: as above
Complement component C5 = molecular target: T1, Complement component C5 (UniProt P01031 19-673; P01031 678-1676); experiment: SPR; multicycle kinetics, Biacore 8K; biotinylated OmCI captured by its N-terminal AVI tag on an SA streptavidin chip; C5 as analyte, 7-point 3-fold titration from 250 nM in HBS-EP, 30 ul/min, contact 240 s, dissociation 3600 s; single-site binding model; values of the individual occasions (n=1 to n=4); details: both partners purified
T1 construct: complement C5 beta chain; complement C5 alpha chain; Commercial C5 from CompTech; source: bought: CompTech
T1 sequence (P01031 19-673, chain 1 of 2): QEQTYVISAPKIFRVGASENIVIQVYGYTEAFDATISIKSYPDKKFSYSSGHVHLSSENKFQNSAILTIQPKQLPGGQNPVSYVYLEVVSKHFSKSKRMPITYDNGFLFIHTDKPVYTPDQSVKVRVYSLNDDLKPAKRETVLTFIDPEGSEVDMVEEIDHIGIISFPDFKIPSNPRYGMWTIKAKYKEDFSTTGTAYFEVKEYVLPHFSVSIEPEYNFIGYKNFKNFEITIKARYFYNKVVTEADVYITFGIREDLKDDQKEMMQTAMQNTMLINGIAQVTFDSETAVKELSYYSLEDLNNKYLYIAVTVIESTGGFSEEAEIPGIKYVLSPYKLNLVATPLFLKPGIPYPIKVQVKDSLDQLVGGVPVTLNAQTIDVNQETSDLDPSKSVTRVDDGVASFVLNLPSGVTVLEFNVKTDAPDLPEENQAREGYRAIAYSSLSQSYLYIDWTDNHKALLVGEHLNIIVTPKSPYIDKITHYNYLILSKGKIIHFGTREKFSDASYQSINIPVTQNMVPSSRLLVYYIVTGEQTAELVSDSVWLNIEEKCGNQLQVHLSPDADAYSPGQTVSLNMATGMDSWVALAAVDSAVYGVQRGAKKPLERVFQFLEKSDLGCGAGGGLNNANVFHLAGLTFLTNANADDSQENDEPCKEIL
T1 sequence (P01031 678-1676, chain 2 of 2): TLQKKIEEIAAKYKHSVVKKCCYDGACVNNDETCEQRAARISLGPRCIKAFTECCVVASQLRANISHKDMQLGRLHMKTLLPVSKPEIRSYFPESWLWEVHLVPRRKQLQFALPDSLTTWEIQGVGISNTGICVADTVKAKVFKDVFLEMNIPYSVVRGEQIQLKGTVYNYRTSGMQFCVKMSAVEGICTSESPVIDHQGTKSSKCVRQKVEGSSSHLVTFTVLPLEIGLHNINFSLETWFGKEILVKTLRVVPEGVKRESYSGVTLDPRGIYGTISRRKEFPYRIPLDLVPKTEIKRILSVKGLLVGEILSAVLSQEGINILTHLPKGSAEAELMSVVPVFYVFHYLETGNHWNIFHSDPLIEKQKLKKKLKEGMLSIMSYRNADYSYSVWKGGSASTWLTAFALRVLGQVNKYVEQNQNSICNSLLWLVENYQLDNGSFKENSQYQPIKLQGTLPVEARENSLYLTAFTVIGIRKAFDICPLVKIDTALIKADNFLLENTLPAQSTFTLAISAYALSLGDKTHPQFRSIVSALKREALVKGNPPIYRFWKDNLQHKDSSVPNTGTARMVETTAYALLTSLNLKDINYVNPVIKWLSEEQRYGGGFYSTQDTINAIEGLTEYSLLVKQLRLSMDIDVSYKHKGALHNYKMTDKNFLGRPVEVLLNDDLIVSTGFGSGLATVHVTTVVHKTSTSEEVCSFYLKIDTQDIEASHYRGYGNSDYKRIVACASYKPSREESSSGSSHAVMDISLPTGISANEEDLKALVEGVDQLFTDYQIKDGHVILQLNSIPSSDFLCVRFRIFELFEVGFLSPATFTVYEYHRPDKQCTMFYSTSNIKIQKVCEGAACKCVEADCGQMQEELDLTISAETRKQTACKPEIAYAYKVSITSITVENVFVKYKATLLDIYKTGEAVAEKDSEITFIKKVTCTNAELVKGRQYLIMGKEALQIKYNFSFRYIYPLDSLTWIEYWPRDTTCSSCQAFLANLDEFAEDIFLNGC

**Q.** With “Wildtype OmCI (from UniProt Q5YD59 19-168) (natural protein)” as the molecule, how does the pIC50, alternative pathway (AP) complement activation ELISA (inhibition of MAC formation), OmCI titrated from 5 uM in human serum [1] read?
**A.** Its pIC50, alternative pathway (AP) complement activation ELISA (inhibition of MAC formation), OmCI titrated from 5 uM in human serum is < 9 −log M.

**Q.** For “OmCI E141A (from UniProt Q5YD59 19-168) (natural protein)”, which pIC50, alternative pathway (AP) complement activation ELISA (inhibition of MAC formation), OmCI titrated from 5 uM in human serum [1] is on record?
**A.** Its pIC50, alternative pathway (AP) complement activation ELISA (inhibition of MAC formation), OmCI titrated from 5 uM in human serum is < 8.9 −log M.

**Q.** For “Complement component C5 from human serum (natural protein)”, which Kd [2] is on record?
**A.** Its Kd is less than 0.1 nM.

**Q.** “OmCI H164A (from UniProt Q5YD59 19-168) (natural protein)” was tested. Which pIC50, alternative pathway (AP) complement activation ELISA (inhibition of MAC formation), OmCI titrated from 5 uM in human serum [1] did it give?
**A.** The pIC50, alternative pathway (AP) complement activation ELISA (inhibition of MAC formation), OmCI titrated from 5 uM in human serum was < 8.8 −log M.

**Q.** How did the pIC50, alternative pathway (AP) complement activation ELISA (inhibition of MAC formation), OmCI titrated from 5 uM in human serum [1] turn out when “OmCI E141A/H164A (from UniProt Q5YD59 19-168) (natural protein)” was run?
**A.** The pIC50, alternative pathway (AP) complement activation ELISA (inhibition of MAC formation), OmCI titrated from 5 uM in human serum was 8.5 −log M.

**Q.** Which pIC50, alternative pathway (AP) complement activation ELISA (inhibition of MAC formation), OmCI titrated from 5 uM in human serum [1] does the source give for “OmCI E141A/R47A (from UniProt Q5YD59 19-168) (natural protein)” here?
**A.** Its pIC50, alternative pathway (AP) complement activation ELISA (inhibition of MAC formation), OmCI titrated from 5 uM in human serum is 8 −log M.

**Q.** With “Complement component C5 (CompTech) (natural protein)” as the molecule, how does the ΔTm of the main C5 unfolding peak on complexing [3] read?
**A.** Its ΔTm of the main C5 unfolding peak on complexing is 8.6 °C.

**Q.** What about the approximate fold change in koff relative to WT OmCI [4] of the same molecule?
**A.** Its approximate fold change in koff relative to WT OmCI is 2.4 fold.

**Q.** What about the approximate fold change in koff relative to WT OmCI [5] of the same molecule?
**A.** Its approximate fold change in koff relative to WT OmCI is 29.1 fold.

**Q.** What about the approximate fold change in koff relative to WT OmCI [6] of the same molecule?
**A.** The approximate fold change in koff relative to WT OmCI was 197 fold.

**Q.** What about the approximate fold change in koff relative to WT OmCI [7] of the same molecule?
**A.** The approximate fold change in koff relative to WT OmCI was 31.3 fold.

**Q.** And the approximate fold change in koff relative to WT OmCI [8]?
**A.** Its approximate fold change in koff relative to WT OmCI is 973 fold.

**Q.** What about the approximate fold change in koff relative to WT OmCI [9] of the same molecule?
**A.** The approximate fold change in koff relative to WT OmCI was 5500 fold.

**Q.** What about the approximate fold change in koff relative to WT OmCI [10] of the same molecule?
**A.** Its approximate fold change in koff relative to WT OmCI is 1270 fold.

**Q.** And the approximate fold change in koff relative to WT OmCI [11]?
**A.** Its approximate fold change in koff relative to WT OmCI is 2.6 fold.

**Q.** And the approximate fold change in koff relative to WT OmCI [12]?
**A.** Its approximate fold change in koff relative to WT OmCI is 1.1 fold.

**Q.** What about the approximate fold change in koff relative to WT OmCI [13] of the same molecule?
**A.** Its approximate fold change in koff relative to WT OmCI is 3.5 fold.

**Q.** And the approximate fold change in koff relative to WT OmCI [14]?
**A.** The approximate fold change in koff relative to WT OmCI was 1 fold.

**Q.** What about the approximate fold change in koff relative to WT OmCI [15] of the same molecule?
**A.** The approximate fold change in koff relative to WT OmCI was 229 fold.

**Q.** What about the approximate fold change in koff relative to WT OmCI [16] of the same molecule?
**A.** Its approximate fold change in koff relative to WT OmCI is 4.1 fold.

**Q.** What about the Kd [17] of the same molecule?
**A.** The Kd was 0.709 nM.

**Q.** What about the koff [17] of the same molecule?
**A.** The koff was 0.000304 s⁻¹.

**Q.** And the kon [17]?
**A.** Its kon is 481000 M⁻¹ s⁻¹.

**Q.** What about the Kd [18] of the same molecule?
**A.** The Kd was 4.09 nM.

**Q.** And the koff [18]?
**A.** The koff was 0.00406 s⁻¹.

**Q.** And the kon [18]?
**A.** The kon was 1.13e+06 M⁻¹ s⁻¹.

**Q.** And the Kd [19]?
**A.** Its Kd is 13.1 nM.

**Q.** And the koff [19]?
**A.** Its koff is 0.0318 s⁻¹.

**Q.** And the kon [19]?
**A.** Its kon is 3.01e+06 M⁻¹ s⁻¹.

**Q.** What about the Kd [2] of the same molecule?
**A.** The Kd was less than 0.1 nM.

**Q.** What about the koff [2] of the same molecule?
**A.** The koff was less than 1e-05 s⁻¹.

**Q.** What about the kon [2] of the same molecule?
**A.** The kon was 588000 M⁻¹ s⁻¹.

**Q.** And the stoichiometry N [2]?
**A.** Its stoichiometry N is less than 1.

**Q.** Which pIC50, alternative pathway (AP) complement activation ELISA (inhibition of MAC formation), OmCI titrated from 5 uM in human serum [1] does the source give for “OmCI R47A (from UniProt Q5YD59 19-168) (natural protein)” here?
**A.** The pIC50, alternative pathway (AP) complement activation ELISA (inhibition of MAC formation), OmCI titrated from 5 uM in human serum was < 9 −log M.

B1: Wild-type OmCI with N-terminal 10xHis, TEV site and AVI tag (natural protein)
chain: DSESDCTGSEPVDAFQAFSEGKEAYVLVRSTDPKARDCLKGEPAGEKQDNTLPVMMTFKNGTDWASTDWTFTLDGAKVTATLGNLTQNREVVYDSQSHHCHVDKVEKEVPDYEMWMLDAGGLEVEVECCRQKLEELASGRNQMYPHLKDC
modifications: biotin on the N-terminal AVI tag (Bir-A)
notes: OmCI of Ornithodoros moubata, UniProt Q5YD59, without its signal peptide; No TEV cleavage is described; also called wt OmCI; OmCI WT; source: ExpiHEK 293, transfected, purified from supernatant (nickel-Sepharose Excel); not shown: AVI tag, N-terminal, kept
**Q.** Which Kd (Complement component C5) does the source give for B1 here?
**A.** Its Kd is less than 0.1 nM.

**Q.** What about the koff (Complement component C5) of the same molecule?
**A.** Its koff is less than 1e-05 s⁻¹.

**Q.** What about the kon (Complement component C5) of the same molecule?
**A.** Its kon is 384000 M⁻¹ s⁻¹ and 400000 M⁻¹ s⁻¹ and 1.14e+06 M⁻¹ s⁻¹ and 432000 M⁻¹ s⁻¹.

B2: OmCI E141A/H164A with N-terminal 10xHis, TEV site and AVI tag (natural protein)
chain: DSESDCTGSEPVDAFQAFSEGKEAYVLVRSTDPKARDCLKGEPAGEKQDNTLPVMMTFKNGTDWASTDWTFTLDGAKVTATLGNLTQNREVVYDSQSHHCHVDKVEKEVPDYEMWMLDAGGLAVEVECCRQKLEELASGRNQMYPALKDC
modifications: biotin on the N-terminal AVI tag (Bir-A)
notes: OmCI of Ornithodoros moubata, UniProt Q5YD59, without its signal peptide; source: ExpiHEK 293, transfected, purified from supernatant (nickel-Sepharose Excel); not shown: AVI tag, N-terminal, kept
**Q.** How did the Kd (Complement component C5) turn out when B2 was run?
**A.** The Kd was 5.13 nM and 5.35 nM and 1.8 nM.

**Q.** What about the koff (Complement component C5) of the same molecule?
**A.** Its koff is 0.00438 s⁻¹ and 0.00489 s⁻¹ and 0.00292 s⁻¹.

**Q.** And the kon (Complement component C5)?
**A.** Its kon is 855000 M⁻¹ s⁻¹ and 913000 M⁻¹ s⁻¹ and 1.62e+06 M⁻¹ s⁻¹.

B3: OmCI E141A/R47A with N-terminal 10xHis, TEV site and AVI tag (natural protein)
chain: DSESDCTGSEPVDAFQAFSEGKEAYVLVASTDPKARDCLKGEPAGEKQDNTLPVMMTFKNGTDWASTDWTFTLDGAKVTATLGNLTQNREVVYDSQSHHCHVDKVEKEVPDYEMWMLDAGGLAVEVECCRQKLEELASGRNQMYPHLKDC
modifications: biotin on the N-terminal AVI tag (Bir-A)
notes: as for B2
**Q.** B3 was tested. Which Kd (Complement component C5) did it give?
**A.** Its Kd is 17.6 nM and 7.26 nM and 9.55 nM and 18 nM.

B4: OmCI E141A with N-terminal 10xHis, TEV site and AVI tag (natural protein)
chain: DSESDCTGSEPVDAFQAFSEGKEAYVLVRSTDPKARDCLKGEPAGEKQDNTLPVMMTFKNGTDWASTDWTFTLDGAKVTATLGNLTQNREVVYDSQSHHCHVDKVEKEVPDYEMWMLDAGGLAVEVECCRQKLEELASGRNQMYPHLKDC
modifications: biotin on the N-terminal AVI tag (Bir-A)
notes: OmCI of Ornithodoros moubata, UniProt Q5YD59, without its signal peptide; also called OmCI WT E141A; source: ExpiHEK 293, transfected, purified from supernatant (nickel-Sepharose Excel); not shown: AVI tag, N-terminal, kept
**Q.** Which Kd (Complement component C5) does the source give for B4 here?
**A.** Its Kd is 0.896 nM and 0.395 nM and 0.707 nM and 0.837 nM.

**Q.** And the koff (Complement component C5)?
**A.** Its koff is 0.000307 s⁻¹ and 0.000328 s⁻¹ and 0.000273 s⁻¹.

**Q.** And the kon (Complement component C5)?
**A.** Its kon is 343000 M⁻¹ s⁻¹ and 830000 M⁻¹ s⁻¹ and 367000 M⁻¹ s⁻¹ and 386000 M⁻¹ s⁻¹.
